From patent US20080194485A1, “Detection and Use of Prolylcarboxypeptidase” (YALE UNIVERSITY, priority 2004, published 2008)

Molecular target: recombinant PRCP51 (recombinant human prolylcarboxypeptidase, predicted molecular mass 51 kDa) (human) (UniProt P42785)
Assay: cell-based or functional assay

recombinant PRCP51 (recombinant human prolylcarboxypeptidase, predicted molecular mass 51 kDa) (human), sequence (P42785 46-496 limits assumed): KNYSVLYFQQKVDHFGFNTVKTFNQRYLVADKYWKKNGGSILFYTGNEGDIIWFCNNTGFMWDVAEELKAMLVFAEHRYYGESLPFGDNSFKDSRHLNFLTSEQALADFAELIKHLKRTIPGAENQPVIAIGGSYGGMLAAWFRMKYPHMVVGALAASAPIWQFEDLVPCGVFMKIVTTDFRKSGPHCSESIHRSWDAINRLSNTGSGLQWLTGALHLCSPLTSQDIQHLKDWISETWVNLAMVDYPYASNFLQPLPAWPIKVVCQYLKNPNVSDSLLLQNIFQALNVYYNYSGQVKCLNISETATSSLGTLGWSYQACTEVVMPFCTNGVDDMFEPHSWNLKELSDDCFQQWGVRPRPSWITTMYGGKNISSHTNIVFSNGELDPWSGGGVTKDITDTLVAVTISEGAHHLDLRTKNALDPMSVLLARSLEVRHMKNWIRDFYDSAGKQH

inhibition of rPRCP51-induced prekallikrein (PK) activation (residual kallikrein activity on S2302), IC50: 150 µM
Substance: angiotensinogen II (AgII) (from UniProt P01019 25-32) (peptide)
